Measurements taken from the supplement of paper PMC9112550, “Optimization of the antimicrobial peptide Bac7 by deep mutational scanning” (BMC Biology, 2022).

system: Escherichia coli TOP10; assay: shrunken log2 fold change of peptide-encoding DNA abundance (4.5 h post-induction vs induction); higher = less antimicrobial activity (less host growth inhibition); conditions: time post-induction: 4.5 h; library: site-saturation at positions 5, 18, 19, 20
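Note: peptides expressed intracellularly from a pBAD plasmid library in pooled LB shake-flask culture, induced with 0.3% L-arabinose, DNA abundance read by NGS, three biological replicates, DESeq2 with apeglm shrinkage.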

Row | Sequence | shrunken log2 fold change
1 | RRIRTRPPRLPRPRPRPEFPPRP | 0.0504
2 | RRIRWRPPRLPRPRPRPPQFPRP | -0.108
3 | RRIRDRPPRLPRPRPRPGQQPRP | -0.0114
4 | RRIRGRPPRLPRPRPRPMRYPRP | 0.347
5 | RRIRPRPPRLPRPRPRPYWMPRP | -1.06
6 | RRIRTRPPRLPRPRPRPHNGPRP | -0.0789
7 | RRIRKRPPRLPRPRPRPQPPPRP | 0.672
8 | RRIRDRPPRLPRPRPRPMFIPRP | -0.0363
9 | RRIRDRPPRLPRPRPRPKNEPRP | -0.00834
10 | RRIRVRPPRLPRPRPRPYANPRP | 0.0231
11 | RRIRNRPPRLPRPRPRPPVMPRP | 0.139
12 | RRIRQRPPRLPRPRPRPWLYPRP | -0.0636
13 | RRIRCRPPRLPRPRPRPKALPRP | 0.0255
14 | RRIRTRPPRLPRPRPRPCARPRP | -0.187
15 | RRIRCRPPRLPRPRPRPLPRPRP | 0.612
16 | RRIRYRPPRLPRPRPRPLSIPRP | -0.129
17 | RRIRNRPPRLPRPRPRPTSQPRP | 0.187
18 | RRIRERPPRLPRPRPRPQRLPRP | 0.202
19 | RRIRGRPPRLPRPRPRPSYTPRP | 0.307
20 | RRIRKRPPRLPRPRPRPIWHPRP | 0.248
21 | RRIRYRPPRLPRPRPRPVFSPRP | -0.303
22 | RRIRLRPPRLPRPRPRPHEAPRP | 0.107
23 | RRIRWRPPRLPRPRPRPCPCPRP | -0.273

Row | Sequence | shrunken log2 fold change
24 | RRIRKRPPRLPRPRPRPGMLPRP | 0.542
25 | RRIRERPPRLPRPRPRPGHIPRP | -0.0236
26 | RRIRSRPPRLPRPRPRPWHKPRP | -0.195
27 | RRIRMRPPRLPRPRPRPGMVPRP | 0.263
28 | RRIRGRPPRLPRPRPRPWTHPRP | -0.0708
29 | RRIRGRPPRLPRPRPRPMFCPRP | 0.178
30 | RRIRERPPRLPRPRPRPRETPRP | 0.0334
31 | RRIRVRPPRLPRPRPRPDLVPRP | 0.211
32 | RRIRYRPPRLPRPRPRPAMHPRP | -0.045
33 | RRIRKRPPRLPRPRPRPCDWPRP | -0.0282
34 | RRIRARPPRLPRPRPRPPQLPRP | 0.753
35 | RRIRRRPPRLPRPRPRPLEKPRP | 0.477
36 | RRIRPRPPRLPRPRPRPMDVPRP | -0.0123
37 | RRIRMRPPRLPRPRPRPIFSPRP | 0.0637
38 | RRIRMRPPRLPRPRPRPGVSPRP | 0.461
39 | RRIRRRPPRLPRPRPRPCYKPRP | -0.202
40 | RRIRDRPPRLPRPRPRPWHAPRP | -0.134
41 | RRIRTRPPRLPRPRPRPPHVPRP | 0.307
42 | RRIRKRPPRLPRPRPRPMGLPRP | -0.000777
43 | RRIRMRPPRLPRPRPRPFKEPRP | -0.00865
44 | RRIRERPPRLPRPRPRPVNDPRP | -0.0156
45 | RRIRQRPPRLPRPRPRPHGAPRP | 0.0316
46 | RRIRCRPPRLPRPRPRPYNCPRP | -0.195

Row | Sequence | shrunken log2 fold change
47 | RRIRDRPPRLPRPRPRPCRSPRP | -0.0116
48 | RRIRLRPPRLPRPRPRPITTPRP | -0.283
49 | RRIRMRPPRLPRPRPRPQDIPRP | -0.0524
50 | RRIRVRPPRLPRPRPRPGPEPRP | 0.22
51 | RRIRWRPPRLPRPRPRPPFRPRP | 0.632
52 | RRIRCRPPRLPRPRPRPAGVPRP | 0.259
53 | RRIRERPPRLPRPRPRPACHPRP | -0.0945
54 | RRIRRRPPRLPRPRPRPWDYPRP | 0.0184
55 | RRIRMRPPRLPRPRPRPPLMPRP | 1.34
56 | RRIRRRPPRLPRPRPRPIQRPRP | 0.168
57 | RRIRRRPPRLPRPRPRPIWKPRP | -0.184
58 | RRIRGRPPRLPRPRPRPNQVPRP | 0.195
59 | RRIRVRPPRLPRPRPRPTIDPRP | -0.0691
60 | RRIRRRPPRLPRPRPRPGIDPRP | -0.0704
61 | RRIRGRPPRLPRPRPRPYHEPRP | 0.182
62 | RRIRNRPPRLPRPRPRPSYLPRP | -0.959
63 | RRIRRRPPRLPRPRPRPDPIPRP | 0.227
64 | RRIRKRPPRLPRPRPRPNDPPRP | -0.0515
65 | RRIRARPPRLPRPRPRPASCPRP | 0.295
66 | RRIRNRPPRLPRPRPRPFLQPRP | -0.206
67 | RRIRMRPPRLPRPRPRPEAFPRP | 2.91
68 | RRIRPRPPRLPRPRPRPEIRPRP | 0.0106
69 | RRIRCRPPRLPRPRPRPNKMPRP | -0.393

Row | Sequence | shrunken log2 fold change
70 | RRIRHRPPRLPRPRPRPDKIPRP | -0.042
71 | RRIRGRPPRLPRPRPRPTMPPRP | 0.425
72 | RRIRNRPPRLPRPRPRPYNRPRP | 0.00748
73 | RRIRHRPPRLPRPRPRPCLQPRP | -0.148
74 | RRIRGRPPRLPRPRPRPQFHPRP | -0.239
75 | RRIRNRPPRLPRPRPRPDNYPRP | -0.341
76 | RRIRARPPRLPRPRPRPYMYPRP | -0.635
77 | RRIRCRPPRLPRPRPRPAAQPRP | 0.394
78 | RRIRDRPPRLPRPRPRPLLMPRP | 0.359
79 | RRIRLRPPRLPRPRPRPGEVPRP | 0.117
80 | RRIRARPPRLPRPRPRPQYTPRP | -0.496
81 | RRIRPRPPRLPRPRPRPWFMPRP | -0.18
82 | RRIRIRPPRLPRPRPRPHCYPRP | -0.104
83 | RRIRVRPPRLPRPRPRPWTFPRP | -0.0163
84 | RRIRERPPRLPRPRPRPECLPRP | -0.137
85 | RRIRNRPPRLPRPRPRPCELPRP | -0.0966
86 | RRIRMRPPRLPRPRPRPRVVPRP | 0.246
87 | RRIRTRPPRLPRPRPRPNHWPRP | 0.0032
88 | RRIRIRPPRLPRPRPRPFMPPRP | -0.821
89 | RRIRTRPPRLPRPRPRPRKYPRP | -0.809
90 | RRIRCRPPRLPRPRPRPVHKPRP | 0.287
91 | RRIRYRPPRLPRPRPRPSYEPRP | -0.629
